The values that follow come from article PMC5037814.

Test [1] addresses native bovine Casq1 (skeletal muscle calsequestrin, glycosylated) (bovine (B. taurus)). The experiment in a line: SEC-MALS; 50 µM Casq1 on Yarra 3u SEC-2000, 20 mM MOPS, 300 mM KCl, 0.05 g/dL NaN3, pH 7.2, 1 mM CaCl2. Background: Size exclusion chromatography separates by hydrodynamic size, large species first.
The target is the same in test [2]. The experiment in a line: SEC-MALS; 50 µM Casq1 on Yarra 3u SEC-2000, 20 mM MOPS, 300 mM KCl, 0.05 g/dL NaN3, pH 7.2, 2 mM CaCl2.
The target is the same in test [3]. The experiment in a line: crystal structure; high-Ca2+ form: protein incubated with 5 mM Ca2+ before mixing (2.5 mM in the drop); hanging drop, 4 °C, 0.1 M HEPES, 0.2 M NaCl, 27.5% MPD, pH 7.0.
Test [4] has as its target recombinant bovine Casq1 (non-glycosylated) (bovine (B. taurus)). The experiment in a line: SEC-MALS; 50 µM Casq1 on Yarra 3u SEC-2000, 20 mM MOPS, 300 mM KCl, 0.05 g/dL NaN3, pH 7.2, 2 mM CaCl2.
The target is the same in test [5]. The test is described as follows: crystal structure; high-Ca2+ form: protein incubated with 5 mM Ca2+ before mixing (2.5 mM in the drop); hanging drop, 4 °C, 0.1 M HEPES, 0.2 M NaCl, 27.5% MPD, pH 7.0.

With “native bovine Casq1 (skeletal muscle calsequestrin, glycosylated) (natural protein)”, the stoichiometry N – broadly, the number of molecules, sites or subunits per partner or assembly – in test [1] was 2; in test [2] it was 4; in test [3], 6.

In the case of “recombinant bovine Casq1 (non-glycosylated) (natural protein)”, the stoichiometry N was found to be 2 in test [4] and 6 in test [5].
